According to patent US20220074941A1, “HSP90 COMBINATION THERAPY” (Sloan-Kettering Institute for Cancer Research, priority 2011, published 2022):

B1: NCKAP1 (protein, UniProt Q9Y2A7 2-1128, looked up)
Nck-associated protein 1: SRSVLQPSQQKLAEKLTILNDRGVGMLTRLYNIKKACGDPKAKPSYLIDKNLESAVKFIVRKFPAVETRNNNQQLAQLQKEKSEILKNLALYYFTFVDVMEFKDHVCELLNTIDVCQVFFDITVNFDLTKNYLDLIITYTTLMILLSRIEERKAIIGLYNYAHEMTHGASDREYPRLGQMIVDYENPLKKMMEEFVPHSKSLSDALISLQMVYPRRNLSADQWRNAQLLSLISAPSTMLNPAQSDTMPCEYLSLDAMEKWIIFGFILCHGILNTDATALNLWKLALQSSSCLSLFRDEVFHIHKAAEDLFVNIRGYNKRINDIRECKEAAVSHAGSMHRERRKFLRSALKELATVLSDQPGLLGPKALFVFMALSFARDEIIWLLRHADNMPKKSADDFIDKHIAELIFYMEELRAHVRKYGPVMQRYYVQYLSGFDAVVLNELVQNLSVCPEDESIIMSSFVNTMTSLSVKQVEDGEVFDFRGMRLDWFRLQAYTSVSKASLGLADHRELGKMMNTIIFHTKMVDSLVEMLVETSDLSIFCFYSRAFEKMFQQCLELPSQSRYSIAFPLLCTHFMSCTHELCPEERHHIGDRSLSLCNMFLDEMAKQARNLITDICTEQCTLSDQLLPKHCAKTISQAVNKKSKKQTGKKGEPEREKPGVESMRKNRLVVTNLDKLHTALSELCFSINYVPNMVVWEHTFTPREYLTSHLEIRFTKSIVGMTMYNQATQEIAKPSELLTSVRAYMTVLQSIENYVQIDITRVFNNVLLQQTQHLDSHGEPTITSLYTNWYLETLLRQVSNGHIAYFPAMKAFVNLPTENELTFNAEEYSDISEMRSLSELLGPYGMKFLSESLMWHISSQVAELKKLVVENVDVLTQMRTSFDKPDQMAALFKRLSSVDSVLKRMTIIGVILSFRSLAQEALRDVLSYHIPFLVSSIEDFKDHIPRETDMKVAMNVYELSSAAGLPCEIDPALVVALSSQKSENISPEEEYKIACLLMVFVAVSLPTLASNVMSQYSPAIEGHCNNIHCLAKAINQIAAALFTIHKGSIEDRLKEFLALASSSLLKIGQETDKTTTRNRESVYLLLDMIVQESPFLTMDLLESCFPYVLLRNAYHAVYKQSVTSSA
B2: FHOD1 (protein, UniProt Q9Y613 2-1164, looked up)
FH1/FH2 domain-containing …: AGGEDRGDGEPVSVVTVRVQYLEDTDPFACANFPEPRRAPTCSLDGALPLGAQIPAVHRLLGAPLKLEDCALQVSPSGYYLDTELSLEEQREMLEGFYEEISKGRKPTLILRTQLSVRVNAILEKLYSSSGPELRRSLFSLKQIFQEDKDLVPEFVHSEGLSCLIRVGAAADHNYQSYILRALGQLMLFVDGMLGVVAHSDTIQWLYTLCASLSRLVVKTALKLLLVFVEYSENNAPLFIRAVNSVASTTGAPPWANLVSILEEKNGADPELLVYTVTLINKTLAALPDQDSFYDVTDALEQQGMEALVQRHLGTAGTDVDLRTQLVLYENALKLEDGDIEEAPGAGGRRERRKPSSEEGKRSRRSLEGGGCPARAPEPGPTGPASPVGPTSSTGPALLTGPASSPVGPPSGLQASVNLFPTISVAPSADTSSERSIYKARFLENVAAAETEKQVALAQGRAETLAGAMPNEAGGHPDARQLWDSPETAPAARTPQSPAPCVLLRAQRSLAPEPKEPLIPASPKAEPIWELPTRAPRLSIGDLDFSDLGEDEDQDMLNVESVEAGKDIPAPSPPLPLLSGVPPPPPLPPPPPIKGPFPPPPPLPLAAPLPHSVPDSSALPTKRKTVKLFWRELKLAGGHGVSASRFGPCATLWASLDPVSVDTARLEHLFESRAKEVLPSKKAGEGRRTMTTVLDPKRSNAINIGLTTLPPVHVIKAALLNFDEFAVSKDGIEKLLTMMPTEEERQKIEEAQLANPDIPLGPAENFLMTLASIGGLAARLQLWAFKLDYDSMEREIAEPLFDLKVGMEQLVQNATFRCILATLLAVGNFLNGSQSSGFELSYLEKVSEVKDTVRRQSLLHHLCSLVLQTRPESSDLYSEIPALTRCAKVDFEQLTENLGQLERRSRAAEESLRSLAKHELAPALRARLTHFLDQCARRVAMLRIVHRRVCNRFHAFLLYLGYTPQAAREVRIMQFCHTLREFALEYRTCRERVLQQQQKQATYRERNKTRGRMITETEKFSGVAGEAPSNPSVPVAVSSGPGRGDADSHASMKSLLTSRPEDTTHNRRSRGMVQSSSPIMPTVGPSTASPEEPPGSSLPSDTSDEIMDLLVQSVTKSSPRALAARERKRSRGNRKSLRRTLKSGLGDDLVQALGLSKGPGLEV
B3: CPNE3 (protein, UniProt O75131 1-537, looked up)
Copine-3: MAAQCVTKVALNVSCANLLDKDIGSKSDPLCVLFLNTSGQQWYEVERTERIKNCLNPQFSKTFIIDYYFEVVQKLKFGVYDIDNKTIELSDDDFLGECECTLGQIVSSKKLTRPLVMKTGRPAGKGSITISAEEIKDNRVVLFEMEARKLDNKDLFGKSDPYLEFHKQTSDGNWLMVHRTEVVKNNLNPVWRPFKISLNSLCYGDMDKTIKVECYDYDNDGSHDLIGTFQTTMTKLKEASRSSPVEFECINEKKRQKKKSYKNSGVISVKQCEITVECTFLDYIMGGCQLNFTVGVDFTGSNGDPRSPDSLHYISPNGVNEYLTALWSVGLVIQDYDADKMFPAFGFGAQIPPQWQVSHEFPMNFNPSNPYCNGIQGIVEAYRSCLPQIKLYGPTNFSPIINHVARFAAAATQQQTASQYFVLLIITDGVITDLDETRQAIVNASRLPMSIIIVGVGGADFSAMEFLDGDGGSLRSPLGEVAIRDIVQFVPFRQFQNAPKEALAQCVLAEIPQQVVGYFNTYKLLPPKNPATKQQKQ
B4: TPP1 (protein, UniProt O14773 196-563, looked up)
Tripeptidyl-peptidase 1: LHLGVTPSVIRKRYNLTSQDVGSGTSNNSQACAQFLEQYFHDSDLAQFMRLFGGNFAHQASVARVVGQQGRGRAGIEASLDVQYLMSAGANISTWVYSSPGRHEGQEPFLQWLMLLSNESALPHVHTVSYGDDEDSLSSAYIQRVNTELMKAAARGLTLLFASGDSGAGCWSVSGRHQFRPTFPASSPYVTTVGGTSFQEPFLITNEIVDYISGGGFSNVFPRPSYQEEAVTKFLSSSPHLPPSSYFNASGRAYPDVAALSDGYWVVSNRVPIPWVSGTSASTPVFGGILSLINEHRILSGRPPLGFLNPRLYQQHGAGLFDVTRGCHESCLDEEVEGQGFCSGPGWDPVTGWGTPNFPALLKTLLNP
B5: SDCCAG1 (protein, UniProt O60524 1-1076, looked up)
Ribosome quality control …: MKSRFSTIDLRAVLAELNASLLGMRVNNVYDVDNKTYLIRLQKPDFKATLLLESGIRIHTTEFEWPKNMMPSSFAMKCRKHLKSRRLVSAKQLGVDRIVDFQFGSDEAAYHLIIELYDRGNIVLTDYEYVILNILRFRTDEADDVKFAVRERYPLDHARAAEPLLTLERLTEIVASAPKGELLKRVLNPLLPYGPALIEHCLLENGFSGNVKVDEKLETKDIEKVLVSLQKAEDYMKTTSNFSGKGYIIQKREIKPSLEADKPVEDILTYEEFHPFLFSQHSQCPYIEFESFDKAVDEFYSKIEGQKIDLKALQQEKQALKKLDNVRKDHENRLEALQQAQEIDKLKGELIEMNLQIVDRAIQVVRSALANQIDWTEIGLIVKEAQAQGDPVASAIKELKLQTNHVTMLLRNPYLLSEEEDDDVDGDVNVEKNETEPPKGKKKKQKNKQLQKPQKNKPLLVDVDLSLSAYANAKKYYDHKRYAAKKTQKTVEAAEKAFKSAEKKTKQTLKEVQTVTSIQKARKVYWFEKFLWFISSENYLIIGGRDQQQNEIIVKRYLTPGDIYVHADLHGATSCVIKNPTGEPIPPRTLTEAGTMALCYSAAWDARVITSAWWVYHHQVSKTAPTGEYLTTGSFMIRGKKNFLPPSYLMMGFSFLFKVDESCVWRHQGERKVRVQDEDMETLASCTSELISEEMEQLDGGDTSSDEDKEEHETPVEVELMTQVDQEDITLQSGRDELNEELIQEESSEDEGEYEEVRKDQDSVGEMKDEGEETLNYPDTTIDLSHLQPQRSIQKLASKEESSNSSDSKSQSRRHLSAKERREMKKKKLPSDSGDLEALEGKDKEKESTVHIETHQNTSKNVAAVQPMKRGQKSKMKKMKEKYKDQDEEDRELIMKLLGSAGSNKEEKGKKGKKGKTKDEPVKKQPQKPRGGQRVSDNIKKETPFLEVITHELQDFAVDDPHDDKEEQDLDQQGNEENLFDSLTGQPHPEDVLLFAIPICAPYTTMTNYKYKVKLTPGVQKKGKAAKTALNSFMHSKEATAREKDLFRSVKDTDLSRNIPGKVKVSAPNLLNVKRK
B6: NUP54 (protein, UniProt Q7Z3B4 1-507, looked up)
Nucleoporin p54: MAFNFGAPSGTSGTAAATAAPAGGFGGFGTTSTTAGSAFSFSAPTNTGTTGLFGGTQNKGFGFGTGFGTTTGTSTGLGTGLGTGLGFGGFNTQQQQQTTLGGLFSQPTQAPTQSNQLINTASALSAPTLLGDERDAILAKWNQLQAFWGTGKGYFNNNIPPVEFTQENPFCRFKAVGYSCMPSNKDEDGLVVLVFNKKETEIRSQQQQLVESLHKVLGGNQTLTVNVEGTKTLPDDQTEVVIYVVERSPNGTSRRVPATTLYAHFEQANIKTQLQQLGVTLSMTRTELSPAQIKQLLQNPPAGVDPIIWEQAKVDNPDSEKLIPVPMVGFKELLRRLKVQDQMTKQHQTRLDIISEDISELQKNQTTSVAKIAQYKRKLMDLSHRTLQVLIKQEIQRKSGYAIQADEEQLRVQLDTIQGELNAPTQFKGRLNELMSQIRMQNHFGAVRSEERYYIDADLLREIKQHLKQQQEGLSHLISIIKDDLEDIKLVEHGLNETIHIRGGVFS

Tested on: Hsp90 complexes in K562 cell extract
Experiment: Nano-LC-MS/MS of PU-beads pull-downs
Format: binding
Conditions: protein identified in PU-beads pull-down of K562 cell extract, Prep 1; QSTAR-Elite QTof MS
In short: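 Proteins were identified by data-dependent nano LC-MS/MS (QTof, ESI) and Mascot searching (p<0.05), then reported as spectral counts and coverage via Scaffold. Inputs were PU-bead versus control-bead pull-downs from lysate pre-cleared with control beads overnight at 4 °C, eluted by boiling in 2% SDS.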

Point of comparison: B1, “Number of Assigned Spectra, K562 Prep 1” value 5. Against it:
- B2 — the same, 5
- B3 — lower, 4
- B4 — lower, 4
- B5 — lower, 2
- B6 — lower, 1

Same assay, conditions: protein identified in PU-beads pull-down of K562 cell extract, Prep 2; QSTAR-Elite QTof MS

Point of comparison: B4, “Number of Assigned Spectra, K562 Prep 2” value 1. Against it:
- B1 — the same, 1
- B2 — higher, 2
- B3 — higher, 5
- B5 — higher, 2
- B6 — higher, 7

Tested on: Hsp90 complexes in Mia-PaCa-2 cell extract
Experiment: Nano-LC-MS/MS of PU-beads pull-downs
Format: binding, human
Conditions: protein identified in PU-beads pull-down of Mia-PaCa-2 cell extract; QSTAR-Elite QTof MS
In short: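 They came from PU-bead pull-downs of pre-cleared lysates (control beads, overnight, 4 °C), eluted by boiling in 2% SDS, gel-separated and run by data-dependent nano-ESI QTof MS/MS.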

Point of comparison: B6, “Number of Assigned Spectra, Mia-Paca 2” value 0. Against it:
- B1 — higher, 2
- B2 — the same, 0
- B3 — the same, 0
- B4 — higher, 1
- B5 — higher, 3
